This passage reports self-cleavage results from the RNAGym collection of RNA variant scans (doi:10.7554/elife.90254).

B1: LINE1-full (parent)
chain: UACGUAGGUGGUUUUCCCCUGAUAGUGCUAAGGGGGCCUGGAAGUUUGGACUGGGCAGAGCUCAACACAGCGUGGCAAAGUGGCUGUGGCUAGACUGCCUCUCUGGAUUCCUCGUCACUCAGCAGGGCAUCUCUGAGAGAAAUGCC

The variants in this data set derive from B1. The data set is described as follows: self-cleavage, relative activity (ratio to wild type); higher = more cleavage; in vitro, sequencing; the parent is a self-cleaving ribozyme.
As for U13G A129G, the self-cleavage is 1.46.

In the case of U14C C90U, the self-cleavage was determined as 0.01.

Regarding U13C U143A, the self-cleavage came to 1.17.

Regarding U13G A77U, the self-cleavage turned out to be 1.31.

In the case of U14A U46A, the self-cleavage was determined as 0.86.

With U14A U46C, the self-cleavage is 1.17.

Turning to U14A C101A, the self-cleavage came to 1.42.

For U14C, the self-cleavage amounted to 1.15.

Take U14A: the self-cleavage was determined as 1.01.

Consider U13C U96G, for which the self-cleavage was found to be 0.06.

For U14C G58A, the self-cleavage turned out to be 0.06.

For U14C G58U, the self-cleavage was found to be 0.03.

For U14C G58C, the self-cleavage was determined as 0.08.

Turning to U14A U143C, the self-cleavage was found to be 1.

For U14C A64U, the self-cleavage was found to be 0.46.

On to U14C A78G, for which the self-cleavage was determined as 1.22.

Turning to U14C A78C, the self-cleavage is 1.74.

In the case of U14C G55C, the self-cleavage came out at 0.09.

As to U14A A129G, the self-cleavage worked out at 1.84.

Turning to U14C G48A, the self-cleavage worked out at 1.12.

In the case of U14C C99A, the self-cleavage is 0.86.

Turning to U13C U134G, the self-cleavage is 1.04.

For U13C U134A, the self-cleavage was 1.03.

Turning to U14C A67G, the self-cleavage is 0.61.

With U14C C146U, the self-cleavage stood at 1.32.

Regarding U14C C68U, the self-cleavage came to 0.32.

Regarding U14C C68A, the self-cleavage is 0.09.

For U14A A136G, the self-cleavage is 0.97.

With U14A A136C, the self-cleavage came out at 1.78.

With U14A G72U, the self-cleavage amounted to 1.32.

On to U14A U104A, for which the self-cleavage amounted to 1.16.

For U14A U104C, the self-cleavage was 1.69.

For the variant U14A G114A, the self-cleavage is 0.83.

As for U14A U81A, the self-cleavage is 2.09.

In the case of U14A U81C, the self-cleavage is 1.1.

With U14A U81G, the self-cleavage was 0.8.

For U14A U132C, the self-cleavage came out at 1.35.

In the case of U13C U115C, the self-cleavage came out at 1.53.

As for U13C U115A, the self-cleavage is 1.3.

As to U13C U102C, the self-cleavage was 1.4.

As to U13C U102A, the self-cleavage was found to be 1.73.

Regarding U14C C18A, the self-cleavage amounted to 1.24.

On to U13G A69U, for which the self-cleavage stood at 0.39.

In the case of U14A G70A, the self-cleavage was 0.19.

For U13G U85A, the self-cleavage was determined as 0.06.

U13C U130C: the self-cleavage came to 1.2.

As for U13C U130A, the self-cleavage amounted to 1.6.

For U14C C38U, the self-cleavage was determined as 1.09.

In the case of U14C A31U, the self-cleavage was found to be 1.11.

As for U14C A31G, the self-cleavage came to 1.24.

In the case of U13G C113U, the self-cleavage is 1.11.

As to U14C C51G, the self-cleavage was 1.84.

On to U14C C51U, for which the self-cleavage is 0.71.

Take U14A C99U: the self-cleavage came to 0.85.

With U13G U132G, the self-cleavage came out at 2.18.

Regarding U14C A92G, the self-cleavage worked out at 0.14.

U14C A92U: the self-cleavage is 0.89.

Turning to U13G G114A, the self-cleavage turned out to be 0.64.

U14C C76U: the self-cleavage is 1.23.

Regarding U13G C76U, the self-cleavage was determined as 1.47.

Regarding U14C A22U, the self-cleavage was determined as 2.36.

As for U14A A141G, the self-cleavage came out at 1.

For U14A U23C, the self-cleavage is 1.44.

As for U14C G36A, the self-cleavage came out at 1.55.

Turning to U14C G36U, the self-cleavage stood at 1.31.

In the case of U13G A121G, the self-cleavage was found to be 1.1.

For U14C C128U, the self-cleavage was found to be 0.2.

With U14A U47C, the self-cleavage worked out at 1.14.

With U13C U112C, the self-cleavage came out at 1.35.

With U13C U112G, the self-cleavage is 1.13.

U13G U100A: the self-cleavage turned out to be 0.77.

U14A U73A: the self-cleavage worked out at 1.39.

Turning to U14C C113U, the self-cleavage was determined as 0.82.

Turning to U14C C113A, the self-cleavage was 1.19.

Take U14C A117G: the self-cleavage amounted to 1.22.

U14A U109C: the self-cleavage was determined as 1.05.

For the variant U14C C110U, the self-cleavage was determined as 1.39.

As for U14C C110A, the self-cleavage stood at 1.33.

Regarding U14C G32U, the self-cleavage worked out at 1.03.

As to U14C G32C, the self-cleavage came out at 1.58.

As to U14A A30G, the self-cleavage was determined as 1.27.

Consider U13C U100A, for which the self-cleavage was found to be 0.7.

As to U13C U100C, the self-cleavage amounted to 1.4.

As to U14A A138G, the self-cleavage stood at 1.15.

In the case of U13G U47C, the self-cleavage was 1.17.

On to U14C C123U, for which the self-cleavage came out at 1.05.

As to U14A U45C, the self-cleavage is 1.09.

In the case of U14A U45G, the self-cleavage was found to be 0.77.

As for U14A U45A, the self-cleavage was 0.23.

Take U13G U104A: the self-cleavage was found to be 1.39.

For U13C U85A, the self-cleavage is 0.13.

With U14C A94C, the self-cleavage was 0.09.

As for U14C A94G, the self-cleavage came to 0.31.

U14A C28U: the self-cleavage turned out to be 0.66.

In the case of U14C C61G, the self-cleavage came to 0.1.

For the variant U14A A142G, the self-cleavage was 0.85.

U14C G54A: the self-cleavage is 0.71.

For the variant U14A A24U, the self-cleavage was 0.77.

As for U14A A24G, the self-cleavage was 0.96.

As for U13G A79U, the self-cleavage is 0.44.

Regarding U14C A77C, the self-cleavage worked out at 2.68.

As to U14C A77G, the self-cleavage is 1.73.

With U14A U102A, the self-cleavage is 0.99.

For the variant U14C A50U, the self-cleavage was 1.03.

Regarding U13G U45C, the self-cleavage turned out to be 0.78.

U14C A142G: the self-cleavage was 1.34.

With U14A U130C, the self-cleavage was 0.83.

For the variant U13C U87G, the self-cleavage turned out to be 0.21.

Take U14C G41U: the self-cleavage worked out at 0.71.

With U14A A31U, the self-cleavage is 0.84.

Regarding U14A A31G, the self-cleavage was 0.89.

On to U14A U87C, for which the self-cleavage was 0.12.

Take U14C A129U: the self-cleavage was found to be 1.35.

For U14A U52C, the self-cleavage amounted to 0.8.

As for U14A A67U, the self-cleavage amounted to 0.1.

In the case of U14A U29C, the self-cleavage was determined as 1.28.

For the variant U14A U29A, the self-cleavage amounted to 1.51.

As to U14A U39C, the self-cleavage stood at 0.95.

On to U14A U39A, for which the self-cleavage was found to be 0.8.

Turning to U14A A77G, the self-cleavage worked out at 1.39.

Turning to U13C U91C, the self-cleavage was 0.99.

Consider U13C U91A, for which the self-cleavage is 0.85.

U14C C145U: the self-cleavage worked out at 1.41.

Take U14C C145A: the self-cleavage was determined as 1.28.

For U14C C145G, the self-cleavage amounted to 0.63.

As for U14C A65U, the self-cleavage was 0.19.

With U14C A42G, the self-cleavage was found to be 1.15.

Turning to U13G, the self-cleavage was 0.93.

As for U14A U96C, the self-cleavage turned out to be 0.04.

With U14A U26A, the self-cleavage worked out at 0.79.

For U13C U119C, the self-cleavage was 1.54.

Turning to U14C C16A, the self-cleavage turned out to be 0.84.

As to U13G G58A, the self-cleavage was determined as 0.17.

On to U14C A57U, for which the self-cleavage worked out at 0.06.

Turning to U14A A78G, the self-cleavage was 0.34.

Regarding U13G A94G, the self-cleavage was found to be 0.37.

For U13G U39C, the self-cleavage came to 0.7.

For the variant U13G A67U, the self-cleavage came out at 0.13.

With U13G A67G, the self-cleavage stood at 1.9.

For the variant U13G U115G, the self-cleavage was determined as 1.43.

In the case of U14A C103U, the self-cleavage was found to be 0.99.

For U14A A140G, the self-cleavage amounted to 0.91.

For U14A A140U, the self-cleavage came to 1.43.

As for U14C G34A, the self-cleavage was found to be 0.92.

In the case of U14C G34U, the self-cleavage stood at 0.45.

In the case of U14C A121U, the self-cleavage worked out at 1.25.

Regarding U14C A121C, the self-cleavage came out at 1.13.

In the case of U14C A121G, the self-cleavage came out at 1.3.

Consider U14C C131A, for which the self-cleavage is 1.15.

Regarding U14C G25C, the self-cleavage was 0.5.

Consider U14C G25U, for which the self-cleavage turned out to be 1.26.

Consider U13G A92G, for which the self-cleavage was 0.

Regarding U13C U132A, the self-cleavage came out at 1.3.

For the variant U13C U132C, the self-cleavage worked out at 1.2.

U14C A69G: the self-cleavage amounted to 0.6.

For U14A U134A, the self-cleavage came to 0.81.

Turning to U14C A79U, the self-cleavage is 1.97.

Turning to U14A U62A, the self-cleavage was determined as 0.05.

For U14A A50G, the self-cleavage turned out to be 1.25.

In the case of U13C U81C, the self-cleavage was determined as 1.05.

Turning to U14C C19U, the self-cleavage was 0.83.

Regarding U14A U119A, the self-cleavage was 1.02.

For U13C U73C, the self-cleavage came to 1.17.

Turning to U13C U73G, the self-cleavage stood at 0.91.

For the variant U13C U73A, the self-cleavage stood at 1.39.

Take U14A A43G: the self-cleavage was 0.43.

On to U14C A59U, for which the self-cleavage came to 0.88.
